First the molecules themselves.
B1: Chromodomain-helicase-DNA-binding protein 5, residues 338 to 390; numbered along this chain, Q8TDI0 (parent)
chain: YETDHQDYCEVCQQGGEIILCDTCPRAYHLVCLDPELEKAPEGKWSCPHCEKE
B2: SWI/SNF complex subunit SMARCC1, residues 620 to 663; numbered along this chain, Q92922 (parent)
chain: GREWTEQETLLLLEALEMYKDDWNKVSEHVGSRTQDECILHFLR

Here are results for 59 variants from the Human Domainome abundance scans (Beltran et al. 2025).

± gives the uncertainty stated by the source.

Variants of B1 are the subject of one data set. In words: abundance fitness (aPCA) (normalised: wild type 0, dead -1); higher = more abundant; growth selection in yeast, the domain comes from the species named. The settings on record: Homo sapiens.
As to K39F, the abundance fitness was -0.315 ± 0.23. On the same count and under the same terms, the value for W45G was -0.091 ± 0.096; that for K44P was -0.255 ± 0.14; that for A27N was 0.048 ± 0.21.

Variants of B2 are the subject of the next data set. The data set is described as above. The following applies: Homo sapiens.
As to GREWTEQETLLLLEALEMYKDDWNKVSEHVGSRTQDECILIFLR [H41I], the abundance fitness is -0.537 ± 0.15. On to GREWTEQETLLLLEALEMYKDDWNKVSEHVGSRTQDECILFFLR [H41F], for which the abundance fitness is -0.189 ± 0.15. On the same count and under the same terms, then GREWTEQETLLLLEALEMYKDDWNKVSEHVGSRTQDECILCFLR [H41C], with -0.089 ± 0.14; and GREWTEQETLLLLEALEMYKDDWNKVSEHVGSRTQDECILRFLR [H41R], with -0.019 ± 0.074. Still for that read-out and setting: the value for GREWTEQETLLLLEALEMYKDDWNKVSEHVGSRTQDECILTFLR [H41T] was -0.161 ± 0.059; that for GREWTEQETLLLLEALEMYKDDWNKVSEHVGSRTQDECILGFLR [H41G] was -0.407 ± 0.092. On to GREWTEQETLLLLEALEMYKDDWNKVSEHVGSRTQDECILAFLR [H41A], for which the abundance fitness was determined as 0.064 ± 0.059. On to GREWTEQETLLLLEALEMYKDDWNKVSEHVGSRTQDECILQFLR [H41Q], for which the abundance fitness was -0.21 ± 0.095. The same measure, in the same setting: then GREWTEQETLLLLEALEMYKDDWNKVSEHVGSRTQDECILMFLR [H41M], with -0.187 ± 0.12. Consider GREWTEQETLLLLEALEMYKDDWNKVSEHVGSRTQDECILKFLR [H41K], for which the abundance fitness came to 0.223 ± 0.11. The same measure, in the same setting: then GREWTEQETLLLLEALEMYKDDWNKVSEHVGSRTQDECILWFLR [H41W], with -0.142 ± 0.11; and GREWTEQETLLLLEALEMYKDDWNKVSEHVGSRTQDECILSFLR [H41S], with -0.357 ± 0.071.

Consider GREWTEQETLLLLEALEMYKDDWNKVSEHVGSRTQDECILLFLR [H41L], for which the abundance fitness was -0.247 ± 0.06. The same measure, in the same setting: the value for GREWTEQETLLLLEALEMYKDDWNKVSEHVGSRTQDECILNFLR [H41N] was 0.097 ± 0.12; that for GREWTEQETLLLLEALEMYKDDWNKVSEHVGSRTQDECILYFLR [H41Y] was 0.184 ± 0.098; that for GREWTEQETLLLLEALEMYKDDWNKVSEHVGSRTQDECILEFLR [H41E] was -0.178 ± 0.11. Take GREWTEQETLLLLEALEMYKDDWNKVSEHVGSRTQDECIPHFLR [L40P]: the abundance fitness was -0.299 ± 0.067.

With GREWTEQETLLLLEALEMYKDDWNKVSEHVGSRTQDECITHFLR [L40T], the abundance fitness was 0.206 ± 0.057. Regarding GREWTEQETLLLLEALEMYKDDWNKVSEHVGSRTQDECIIHFLR [L40I], the abundance fitness was -0.138 ± 0.085.

As for GREWTEQETLLLLEALEMYKDDWNKVSEHVGSRTQDECIRHFLR [L40R], the abundance fitness worked out at 0.157 ± 0.062. As to GREWTEQETLLLLEALEMYKDDWNKVSEHVGSRTQDECIQHFLR [L40Q], the abundance fitness worked out at 0.204 ± 0.09.

For GREWTEQETLLLLEALEMYKDDWNKVSEHVGSRTQDECIYHFLR [L40Y], the abundance fitness was 0.213 ± 0.079.

As to GREWTEQETLLLLEALEMYKDDWNKVSEHVGSRTQDECICHFLR [L40C], the abundance fitness worked out at 0.108 ± 0.09. Turning to GREWTEQETLLLLEALEMYKDDWNKVSEHVGSRTQDECINHFLR [L40N], the abundance fitness came to 0.135 ± 0.069. Take GREWTEQETLLLLEALEMYKDDWNKVSEHVGSRTQDECISHFLR [L40S]: the abundance fitness is 0.266 ± 0.057. The same measure, in the same setting: then GREWTEQETLLLLEALEMYKDDWNKVSEHVGSRTQDECIKHFLR [L40K], with 0.171 ± 0.083; and GREWTEQETLLLLEALEMYKDDWNKVSEHVGSRTQDECIHHFLR [L40H], with 0.201 ± 0.061; and GREWTEQETLLLLEALEMYKDDWNKVSEHVGSRTQDECIMHFLR [L40M], with 0.057 ± 0.13. Same read-out and setting: the value for GREWTEQETLLLLEALEMYKDDWNKVSEHVGSRTQDECIEHFLR [L40E] was 0.122 ± 0.1; that for GREWTEQETLLLLEALEMYKDDWNKVSEHVGSRTQDECIAHFLR [L40A] was 0.28 ± 0.066; that for GREWTEQETLLLLEALEMYKDDWNKVSEHVGSRTQDECIFHFLR [L40F] was -0.074 ± 0.074.

Turning to GREWTEQETLLLLEALEMYKDDWNKVSEHVGSRTQDECIWHFLR [L40W], the abundance fitness came out at 0.326 ± 0.14.

Consider GREWTEQETLLLLEALEMYKDDWNKVSEHVGSRTQDECIDHFLR [L40D], for which the abundance fitness stood at 0.319 ± 0.058. On to GREWTEQETLLLLEALEMYKDDWNKVSEHVGSRTQDECIGHFLR [L40G], for which the abundance fitness came to 0.049 ± 0.089. As to GREWTEQETLLLLEALEMYKDDWNKVSEHVGSRTQDECNLHFLR [I39N], the abundance fitness is 0.35 ± 0.076. On the same count and under the same terms, the value for GREWTEQETLLLLEALEMYKDDWNKVSEHVGSRTQDECRLHFLR [I39R] was 0.456 ± 0.049; that for GREWTEQETLLLLEALEMYKDDWNKVSEHVGSRTQDECALHFLR [I39A] was 0.178 ± 0.066; that for GREWTEQETLLLLEALEMYKDDWNKVSEHVGSRTQDECKLHFLR [I39K] was 0.564 ± 0.081. Consider GREWTEQETLLLLEALEMYKDDWNKVSEHVGSRTQDECYLHFLR [I39Y], for which the abundance fitness amounted to 0.117 ± 0.074. As to GREWTEQETLLLLEALEMYKDDWNKVSEHVGSRTQDECPLHFLR [I39P], the abundance fitness was -0.378 ± 0.085. Still for that read-out and setting: the value for GREWTEQETLLLLEALEMYKDDWNKVSEHVGSRTQDECLLHFLR [I39L] was 0.142 ± 0.051; that for GREWTEQETLLLLEALEMYKDDWNKVSEHVGSRTQDECELHFLR [I39E] was 0.513 ± 0.082. Turning to GREWTEQETLLLLEALEMYKDDWNKVSEHVGSRTQDECGLHFLR [I39G], the abundance fitness was -0.004 ± 0.064. For GREWTEQETLLLLEALEMYKDDWNKVSEHVGSRTQDECFLHFLR [I39F], the abundance fitness was -0.043 ± 0.065.

In the case of GREWTEQETLLLLEALEMYKDDWNKVSEHVGSRTQDECHLHFLR [I39H], the abundance fitness is 0.456 ± 0.053. In the case of GREWTEQETLLLLEALEMYKDDWNKVSEHVGSRTQDECQLHFLR [I39Q], the abundance fitness was found to be 0.238 ± 0.062. Take GREWTEQETLLLLEALEMYKDDWNKVSEHVGSRTQDECMLHFLR [I39M]: the abundance fitness is 0.217 ± 0.08. Still for that read-out and setting: then GREWTEQETLLLLEALEMYKDDWNKVSEHVGSRTQDECWLHFLR [I39W], with -0.333 ± 0.15; and GREWTEQETLLLLEALEMYKDDWNKVSEHVGSRTQDECSLHFLR [I39S], with 0.32 ± 0.047; and GREWTEQETLLLLEALEMYKDDWNKVSEHVGSRTQYECILHFLR [D36Y], with -0.374 ± 0.12. In the case of GREWTEQETLLLLEALEMYKDDWNKVSEHVGSRTQWECILHFLR [D36W], the abundance fitness is -0.299 ± 0.14. Turning to GREWTEQETLLLLEALEMYKDDWNKVSEHVGSRTQDMCILHFLR [E37M], the abundance fitness was -0.4 ± 0.23.

Regarding GREWTEQETLLLLEALEMYKDDWNKVSEHVGSRTQDKCILHFLR [E37K], the abundance fitness was -0.546 ± 0.23.

On to GREWTEQETLLLLEALEMYKDDWNKVSEHVGSRTQDACILHFLR [E37A], for which the abundance fitness was -0.283 ± 0.1. On to GREWTEQETLLLLEALEMYKDDWNKVSEHVGSRTQDQCILHFLR [E37Q], for which the abundance fitness was -0.303 ± 0.18.
